We go through one substance from article PMC9879285.

Several values for one entry are separate records, joined by “and”; a condition that tells them apart may be missing. Equal entries are not always repeated.

One may read the stoichiometry N as the number of molecules, sites or subunits per partner or assembly.

The experiment concerns the target V2E FP_HM (HIV gp41 ectodomain construct FP_HM with the V2E mutation) (HIV (HXB2 laboratory strain)). Nature of the experiment: SEC.

Turning to “V2E FP_HM (HIV gp41 ectodomain construct FP_HM with the V2E mutation) (domain or fragment)”, the stoichiometry N was 3 and 6.
